Experimental findings from article PMC4325984 (The Biochemical journal, 2015) are described below.

Usually Kd stands for the concentration at which binding is half-saturated. A lower Kd goes with a tighter complex. A word on the stoichiometry N: it is the number of molecules, sites or subunits per partner or assembly.

For the experiment, the target named is rabbit muscle ADP-G-actin (rabbit, UniProt P68135 1-377). As to the kind of experiment: ITC. A general note: In ITC the heat of successive injections is recorded.

B1: UNC-60A (natural protein)
chain: MSSGVMVDPDVQTSFQKLSEGRKEYRYIIFKIDENKVIVEAAVTQDQLGITGDDYDDSSKAAFDKFVEDVKSRTDNLTDCRYAVFDFKFTCSRVGAGTSKMDKIIFLQICPDGASIKKKMVYASSAAAIKTSLGTGKILQFQVSDESEMSHKELLNKLGEKYGDH
Regarding B1, the Kd worked out at 32.2 nM, the dH is -2.31 ± 0.0711 kcal/mol and the “stoichiometry N” value worked out at 1.

B2: UNC-60B (natural protein)
chain: MASGVKVDPSCKNAYDLLHNKHQHSYIIFKIDKNDTAIVVEKVGEKNAPYAEFVEEMKKLVEDGKECRYAAVDVEVTVQRQGAEGTSTLNKVIFVQYCPDNAPVRRRMLYASSVRALKASLGLESLFQVQASEMSDLDEKSVKSDLMSNQRI
Consider B2, for which binding was put at a Kd of 8.62 nM and the dH is -6.72 ± 0.117 kcal/mol.
